The results in this text go back to US20260250363A1.

Like-named read-outs stand apart in the source and are kept apart here.

The target in test [1] is SARS-CoV-2 +E484K B.1.1.7 Spike Protein (R&D, Cat. #10824-CV) (SARS-CoV-2) (UniProt P0DTC2). Briefly: direct ELISA on coated spike. A general note: In an ELISA, binding on a coated surface is turned into a signal by an enzyme label.
For test [2] the target is unchanged. Briefly: competition ELISA: blocks biotin-ACE2 binding to coated spike.
The target is the same in test [3]. Kind of test: BLI (ForteBio), mAb on AHC sensor, spike in solution. A general note: BLI is a label-free optical method that tracks binding on a fibre tip over time.
Test [4] shares this target. Briefly: competition ELISA: blocks biotin-ACE2 binding to coated spike. This is another data set of the same source.

Substance Casirivimab (antibody) showed an EC50 in test [1] of 0.0584 nM. In addition, the IC50 in test [2] is 3.13 nM; in test [4], 3.3 nM. In addition, in test [3], the Kd came to 3.4 nM.
With Imdevimab (antibody), the EC50 in test [1] amounted to 0.0505 nM. This substance also showed an equilibrium dissociation constant (Kd) in test [3] of 0.831 nM.

In general, EC50 refers to the concentration that produces a half-maximal response. As a reminder, the IC50 is the concentration needed to halve the response being measured. Usually Kd stands for the concentration at which binding is half-saturated. High values mean lower affinity, low ones higher affinity.
